Experiment [1] addresses T1, human extracellular domain of TLT-1-Fc tagged protein (sTLT-1-Fc) (UniProt Q86YW5 16-162).
T1 chain: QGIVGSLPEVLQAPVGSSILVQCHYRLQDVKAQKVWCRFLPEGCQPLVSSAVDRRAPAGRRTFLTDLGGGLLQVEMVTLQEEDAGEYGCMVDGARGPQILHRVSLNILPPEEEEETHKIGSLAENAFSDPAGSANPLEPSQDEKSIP
As to the kind of experiment: ELISA.

For experiment [2], the target named is T1, human extracellular domain of TLT-1-Fc …. As to the kind of experiment: ELISA. On the technique in general: In an ELISA, binding on a coated surface is turned into a signal by an enzyme label.
The target of experiment [3] is T2, human extracellular domain of TLT-1-Fc tagged protein (sTLT-1-Fc) (human, UniProt Q86YW5 16-162).
T2 construct: also called SILT-1-Fc; extracellular domain of human TLT-1; not shown: Fc tag
T2 sequence: T1 chain
In words: ELISA, human TLT-1 extracellular domain coated, anti-His-HRP detection, Kd fitted from OD450. As for the experimental part: The extracellular domain of human TLT-1 protein was coated onto a 96-well plate for ELISA. After 24 hours incubation at 4° C. and 2 hours of blocking at room temperature (RT) with the blocking buffer, increasing concentrations of ten anti-TLT-1 sdAbs, sTF₂₀₉-PC1sdAb 2-33TLT-His and sTF₂₀₉-PC2sdAb 2-90TLT-His proteins were added to the respective wells for 1-hour incubation at RT. Anti-His tag—HRP-labeled antibody was used to evaluate the binding.
The binding of sdAb 2-33TLT-His, sdAb 2-132TLT-His, sdAb 2-25TLT-His, sdAb 2-64 TLT-His, sdAb 2-90TLT-His, sdAb 2-127TLT-His, sdAb 2-2 TLT-His, sdAb 3-32TLTcur-His; sdAb 3-38TLT-His and sdAb 2-69TLT-His, sTF₂₀₉-PC1-sdAb 2-33TT-His and s TF₂₀₉-PC1-sdAb 2-90TLT-His proteins to the human extracellular domain of TLT-1-Fc tagged protein (sTLT-1-Fc) was analyzed using ELISA, sTLT-1-Fc (3 μg/ml) was immobilized onto a 96-well plate for 24 hours at 4° C. and each well immobilized with SILT-1-Fc was blocked with 2% BSA PBST (PBS plus 0.1% Tween 20) for 2 hours at room temperature (RT). Serial dilution (1000 nM to 0.001 nM) of TLT-sdAbs and sTF-sdAb fusion proteins was performed and diluted proteins were then added to the coated 96-well platelet and incubated for 1 hour. After 3 times of washing with PBST, anti-His HRP antibody was added and incubated for 1 hour at RT. The plate was then washed for 3 times to remove the excess HRP conjugate and 100 μL TMB substrate was then added and incubated for 10-15 mins. To stop the reaction of color development, 2M sulfuric acid was added to the well.

The target in experiment [4] is T3, mouse TLT-1 on activated mouse platelets (mouse, UniProt Q8K558 21-317).
T3 construct: whole, on cells
T3 sequence (looked up): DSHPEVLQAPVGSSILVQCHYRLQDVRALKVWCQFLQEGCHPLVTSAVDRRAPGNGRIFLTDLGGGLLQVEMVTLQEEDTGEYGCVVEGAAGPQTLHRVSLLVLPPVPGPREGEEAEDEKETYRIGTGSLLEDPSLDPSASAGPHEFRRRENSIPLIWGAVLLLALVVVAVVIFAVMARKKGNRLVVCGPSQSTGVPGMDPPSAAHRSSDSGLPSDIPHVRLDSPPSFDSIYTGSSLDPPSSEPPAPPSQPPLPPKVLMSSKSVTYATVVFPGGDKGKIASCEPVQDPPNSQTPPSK
In words: flow cytometry, collagen-activated mouse platelets in whole blood, FITC anti-His detection. As for the experimental part: To prepare activated human platelets, ADP (5 and 20 μM) were preincubated with human whole blood and the above proteins were then added to the ADP-treated whole blood. To prepare activated mouse platelets, collagen, at either 5 μg/ml or 10 μg/ml, was preincubated with mouse whole blood and the above proteins were then added to the […] whole blood. The binding of the proteins with platelets was detected with FITC-labeled—anti-His tag antibody.
The binding capability of sdAb 2-33TLT-His, sdAb sTF₂₀₉-PC1-sdAb 2-33TLT-His and sTF₂₀₉-PC1-sdAb 2-90TLT-His proteins to both human and mouse resting and activated platelets was tested by FACS assay. Citrated human (3 donors) and mouse (12 mice) whole blood were collected at room temperature (RT) and 10 μL of whole blood was used for each sample. To activate human platelets, ADP (5 and 20 μM) was used, and incubated with whole blood for 10 min at room temperature (RT). To activate mouse platelet, Type I fibrillary collagen (5 and 10 ug/ml) was used and incubated with whole blood for 10 min at room temperature (RT). […] After incubation for 30 min at room temperature, all samples were fixed with 500 μL of 5% paraformaldehyde for 10 min at RT and. analyzed by FACS (LSR II, Beckon Dickinson, San Jose, Calif.).

The target of experiment [5] is T1, human extracellular domain of TLT-1-Fc …. In words: ELISA; second row printed 2-33; plot key shows sdAb 2-90TLT-His.

Bounds are passed on as bounds.

B1: sdAb 2-33TLT-His (VHH)
VHH: QVQLVESGGGLVQPGGSLTLSCAASGSIANIGGMAWYRRLPGNKRAMVASITSAGTASSYIDSVKGRFTISRDNAKNTVYLQMTSLKPEDTAVYLCKAWDRDLVDYWGQGIQVTVSS
notes: also called sdAb-2-33-His
For orientation: Kd means a measure of binding affinity in units of concentration. As for B1, the Kd was 4.47 nM in experiment [1], 2.74 nM in experiment [2] and less than 10 nM in experiment [3].

B2: sTF209-PC1-sdAb 2-33TLT-His (other)
chain: MASMSGTTNTVAAYNLTWKSTNFKTILEWEPKPVNQVYTVQISTKSGDWKSKCFYTTDTECDLTDEIVKDVKQTYLARVFSYPAGNVESTGSAGEPLYENSPEFTPYLETNLGQPTIQSFEQVGTKVNVTVEDERTLVRRNNTFLSLRDVFGKDLIYTLYYWKSSSSGKKTAKTNTNEFLIDVDKGENYCFSVQAVIPSRTVNRKSTDSPVECGSGGGTGGGSGGSGGGTGGGSGAIEPRSFSQNQVQLVESGGGLVQPGGSLTLSCAASGSIANIGGMAWYRRLPGNKRAMVASITSAGTASSYIDSVKGRFTISRDNAKNTVYLQMTSLKPEDTAVYLCKAWDRDLVDYWGQGIQVTVSSHHHHHH
notes: the entry also holds vector-derived N-terminal residues; also called sTF209-PC1-dAb 2-33TLT-His; sTF209-sdAb 2-33TLT-His
Take B2: the Kd was 2.28 nM in experiment [1] and less than 10 nM in experiment [3].

B3: sTF209-PC1-sdAb 2-90TLT-His (other)
chain: MASMSGTTNTVAAYNLTWKSTNFKTILEWEPKPVNQVYTVQISTKSGDWKSKCFYTTDTECDLTDEIVKDVKQTYLARVFSYPAGNVESTGSAGEPLYENSPEFTPYLETNLGQPTIQSFEQVGTKVNVTVEDERTLVRRNNTFLSLRDVFGKDLIYTLYYWKSSSSGKKTAKTNTNEFLIDVDKGENYCFSVQAVIPSRTVNRKSTDSPVECGSGGGTGGGSGGSGGGTGGGSGAIEPRSFSQNQVQLVESGGGLVQAGGSLTLSCAASGSTSGINVMAWYRQAPGKQRELVANKARGGLPKYADFAKGRFTISRDNTKNTISLQMNSLKPEDTAVYYCNALLDWRLGDYWGQGTQVTVSSHHHHHH
notes: the entry also holds vector-derived N-terminal residues
B3: the figures for the Kd in experiment [1] and in experiment [3] were 1.19 nM and less than 10 nM, respectively. Moreover, the binding result in experiment [4] was “binds”.

B4: sdAb 2-90TLT-His (VHH)
VHH: QVQLVESGGGLVQAGGSLTLSCAASGSTSGINVMAWYRQAPGKQRELVANKARGGLPKYADFAKGRFTISRDNTKNTISLQMNSLKPEDTAVYYCNALLDWRLGDYWGQGTQVTVSS
notes: also called sdAb-2-90-His
B4: the binding result in experiment [4] is on record as “binds”. Also, the figures for the Kd in experiment [2], in experiment [3] and in experiment [5] were 2.39 nM, less than 10 nM and 2.67 nM, respectively.

Values taken from patent US20220041716A1 (BEIJING NEOLETIX BIOLOGICAL TECHNOLOGY, published 2022).
